Patent US20220332795A1 (ARO BIOTHERAPEUTICS, published 2022)

Key:
[1] = target: T1, human CD71 extracellular domain (human, UniProt P02786 89-760, biotinylated); assay: solution ELISA screen, signal ratio to HSA control
T1 construct: extracellular domain; also called hCD71; huCD71 ECD

CD71 apical domain [2] = target: T2, CD71 apical domain (human, UniProt P02786 189-383, limits assumed); assay: solution ELISA screen, signal ratio to HSA control
T2 construct: domain: apical domain

[3] = target: T1, human CD71 extracellular domain; assay: solution ELISA screen (luminescence)
CD71 apical domain [4] = target: T2, CD71 apical domain; assay: solution ELISA screen (luminescence)

T2 sequence (P02786 189-383 limits assumed): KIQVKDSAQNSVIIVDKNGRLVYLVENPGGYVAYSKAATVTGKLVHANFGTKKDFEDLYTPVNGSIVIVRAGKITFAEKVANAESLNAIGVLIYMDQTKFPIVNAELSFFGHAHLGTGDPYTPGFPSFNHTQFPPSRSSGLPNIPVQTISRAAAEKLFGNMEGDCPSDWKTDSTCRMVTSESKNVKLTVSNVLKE
T1 sequence (P02786 other isoform, or with tags, fused parts or gaps): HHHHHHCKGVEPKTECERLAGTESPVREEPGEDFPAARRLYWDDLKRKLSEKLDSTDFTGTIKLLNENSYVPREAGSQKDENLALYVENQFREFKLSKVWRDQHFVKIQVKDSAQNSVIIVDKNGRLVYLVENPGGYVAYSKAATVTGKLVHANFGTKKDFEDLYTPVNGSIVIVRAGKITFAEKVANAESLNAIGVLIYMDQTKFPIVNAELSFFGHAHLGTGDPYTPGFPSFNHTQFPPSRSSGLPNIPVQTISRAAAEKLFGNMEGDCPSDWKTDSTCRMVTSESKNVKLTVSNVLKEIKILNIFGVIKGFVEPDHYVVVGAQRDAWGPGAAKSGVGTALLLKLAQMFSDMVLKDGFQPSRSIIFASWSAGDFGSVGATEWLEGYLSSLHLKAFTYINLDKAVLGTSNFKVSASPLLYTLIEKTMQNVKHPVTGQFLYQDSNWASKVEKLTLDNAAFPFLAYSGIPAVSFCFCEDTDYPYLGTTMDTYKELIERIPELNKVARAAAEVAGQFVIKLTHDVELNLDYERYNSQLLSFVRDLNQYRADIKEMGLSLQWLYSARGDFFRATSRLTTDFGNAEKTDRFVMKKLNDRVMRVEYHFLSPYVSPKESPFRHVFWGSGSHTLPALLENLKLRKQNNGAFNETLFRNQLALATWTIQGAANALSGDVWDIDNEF

hCD71:HSA [1]	apical domain:HSA (CD71 apical domain [2])	RLU [3]	RLU (CD71 apical domain [4])	Binder
10.2 ratio	202 ratio	144000 RLU	2.85e+06 RLU	SEQ ID NO 218 (designed binder, not shown: small tags and cut ends) MLPAPKNLVVSRVTEDSARLSWTAPDAAFDSFYIAYAEPRPDGEAIHLVVPGSERSYDLTGLKPGTEYSVLIHGVKGGLLSSPLSAIFTT
34.4 ratio	191 ratio	1.1e+06 RLU	6.11e+06 RLU	SEQ ID NO 230 (designed binder, not shown: small tags and cut ends) MLPAPKNLVVSRVTEDSARLSWTAPDAAFDSFYIAYAEPRPDGEAIWLLVPGSERSYDLTGLKPGTEYSVLIHGVKGGLLSSPLVAFFTT
22.5 ratio	177 ratio	635000 RLU	4.99e+06 RLU	SEQ ID NO 227 (designed binder, not shown: small tags and cut ends) MLPAPKNLVVSRVTEDSARLSWTAPDAAFDSFYIAYAEPRPDGEAIGLRVPGSERSYDLTGLKPGTEYSVLIHGVKGGLLSSPLSAIFTT
165 ratio	253 ratio	4.58e+06 RLU	7.01e+06 RLU	SEQ ID NO 237 (designed binder, not shown: small tags and cut ends) MLPAPKNLVVSRVTEDSARLSWTAPDAAFDSFYIAYAEPRPDGEAIVLAVPGSERSYDLTGLKPGTEYSVLIHGVKGGLLSSPLYASFTT
22.2 ratio	160 ratio	756000 RLU	5.45e+06 RLU	SEQ ID NO 248 (designed binder, not shown: small tags and cut ends) MLPAPKNLVVSRVTEDSARLSWTAPDAAFDSFYIAYAEPRPDGEAIWLGVPGSERSYDLTGLKPGTEYSVLIHGVKGGLLSSPLHATFTT
35.1 ratio	255 ratio	772000 RLU	5.61e+06 RLU	SEQ ID NO 233 (designed binder, not shown: small tags and cut ends) MLPAPKNLVVSRVTEDSARLSWTAPDAAFDSFYIAYAEPRPDGEAIQLFVPGSERSYDLTGLKPGTEYSVLIHGVKGGLLSSPLKAYFTT
27.2 ratio	76.7 ratio	2.07e+06 RLU	5.84e+06 RLU	SEQ ID NO 256 (designed binder, not shown: small tags and cut ends) MLPAPKNLVVSRVTEDSARLSWTAPDAAFDSFYIAYAEPRPDGEAIQLTVPGSERSYDLTGLKPGTEYSVLIHGVKGGLLSSPLHAYFTT
136 ratio	261 ratio	3.55e+06 RLU	6.82e+06 RLU	SEQ ID NO 224 (designed binder, not shown: small tags and cut ends) MLPAPKNLVVSRVTEDSARLSWTAPDAAFDSFYIAYAEPRPDGEAILLRVPGSERSYDLTGLKPGTEYSVLIHGVKGGLLSSPLVAEFTT
205 ratio	308 ratio	4.94e+06 RLU	7.43e+06 RLU	SEQ ID NO 249 (designed binder, not shown: small tags and cut ends) MLPAPKNLVVSRVTEDSARLSWTAPDAAFDSFYIAYAEPRPDGEAIVLEVPGSERSYDLTGLKPGTEYSVLIHGVKGGLLSSPLHANFTT
262 ratio	477 ratio	4.07e+06 RLU	7.41e+06 RLU	SEQ ID NO 236 (designed binder, not shown: small tags and cut ends) MLPAPKNLVVSRVTEDSARLSWTAPDAAFDSFYIAYAEPRPDGEAILLQVPGSERSYDLTGLKPGTEYSVLIHGVKGGLLSSPLDAEFTT
104 ratio	308 ratio	2.24e+06 RLU	6.62e+06 RLU	SEQ ID NO 254 (designed binder, not shown: small tags and cut ends) MLPAPKNLVVSRVTEDSARLSWTAPDAAFDSFYIAYAEPRPDGEAILLAVPGSERSYDLTGLKPGTEYSVLIHGVKGGLLSSPLSAKFTT
93.4 ratio	374 ratio	1.44e+06 RLU	5.77e+06 RLU	SEQ ID NO 229 (designed binder, not shown: small tags and cut ends) MLPAPKNLVVSRVTEDSARLSWTAPDAAFDSFYIAYAEPRPDGEAIQLLVPGSERSYDLTGLKPGTEYSVLIHGVKGGLLSSPLVAHFTT
97.1 ratio	329 ratio	1.75e+06 RLU	5.93e+06 RLU	SEQ ID NO 244 (designed binder, not shown: small tags and cut ends) MLPAPKNLVVSRVTEDSARLSWTAPDAAFDSFYIAYAEPRPDGEAISLQVPGSERSYDLTGLKPGTEYSVLIHGVKGGLLSSPLGAHFTT
33.9 ratio	292 ratio	610000 RLU	5.26e+06 RLU	SEQ ID NO 240 (designed binder, not shown: small tags and cut ends) MLPAPKNLVVSRVTEDSARLSWTAPDAAFDSFYIAYAEPRPDGEAISLSVPGSERSYDLTGLKPGTEYSVLIHGVKGGLLSSPLHAKFTT
41.9 ratio	259 ratio	774000 RLU	4.77e+06 RLU	SEQ ID NO 245 (designed binder, not shown: small tags and cut ends) MLPAPKNLVVSRVTEDSARLSWTAPDAAFDSFYIAYAEPRPDGEAIALWVPGSERSYDLTGLKPGTEYSVLIHGVKGGLLSSPLVASFTT
38.8 ratio	418 ratio	460000 RLU	4.95e+06 RLU	SEQ ID NO 219 (designed binder, not shown: small tags and cut ends) MLPAPKNLVVSRVTEDSARLSWTAPDAAFDSFYIAYAEPRPDGEAISLKVPGSERSYDLTGLKPGTEYSVLIHGVKGGLLSSPLEAIFTT
131 ratio	238 ratio	3.88e+06 RLU	7.04e+06 RLU	SEQ ID NO 228 (designed binder, not shown: small tags and cut ends) MLPAPKNLVVSRVTEDSARLSWTAPDAAFDSFYIAYAEPRPDGEAIVLRVPGSERSYDLTGLKPGTEYSVLIHGVKGGLLSSPLAASFTT
26.9 ratio	162 ratio	802000 RLU	4.84e+06 RLU	SEQ ID NO 257 (designed binder, not shown: small tags and cut ends) MLPAPKNLVVSRVTEDSARLSWTAPDAAFDSFYIAYAEPRPDGEAIQLGVPGSERSYDLTGLKPGTEYSVLIHGVKGGLLSSPLRAYFTT
226 ratio	394 ratio	4.3e+06 RLU	7.51e+06 RLU	SEQ ID NO 247 (designed binder, not shown: small tags and cut ends) MLPAPKNLVVSRVTEDSARLSWTAPDAAFDSFYIAYAEPRPDGEAILLHVPGSERSYDLTGLKPGTEYSVLIHGVKGGLLSSPLRASFTT
49.1 ratio	69.3 ratio	5.02e+06 RLU	7.08e+06 RLU	SEQ ID NO 255 (designed binder, not shown: small tags and cut ends) MLPAPKNLVVSRVTEDSARLSWTAPDAAFDSFFIGYLEPQPPGEAILLFVPGSERSYDLTGLKPGTEYNVTIQGVKGGFPSTPLSASFTT
216 ratio	338 ratio	4.51e+06 RLU	7.04e+06 RLU	SEQ ID NO 234 (designed binder, not shown: small tags and cut ends) MLPAPKNLVVSRVTEDSARLSWTAPDAAFDSFYIAYAEPRPDGEAIVLVVPGSERSYDLTGLKPGTEYSVLIHGVKGGLLSSPLSAIFTT
135 ratio	400 ratio	2.15e+06 RLU	6.38e+06 RLU	SEQ ID NO 226 (designed binder, not shown: small tags and cut ends) MLPAPKNLVVSRVTEDSARLSWTAPDAAFDSFYIAYAEPRPDGEAIGLHVPGSERSYDLTGLKPGTEYSVLIHGVKGGLLSSPLTASFTT
26.5 ratio	221 ratio	559000 RLU	4.65e+06 RLU	SEQ ID NO 239 (designed binder, not shown: small tags and cut ends) MLPAPKNLVVSRVTEDSARLSWTAPDAAFDSFYIAYAEPRPDGEAIQLVVPGSERSYDLTGLKPGTEYSVLIHGVKGGLLSSPLYAIFTT
21.3 ratio	1.8 ratio	548000 RLU	47500 RLU	SEQ ID NO 246 (designed binder, not shown: small tags and cut ends) MLPAPKNLVVSRVTEDSARLSWTAPDAAFDSFYIAYAEPRPDGEAIQLHVPGSERSYDLTGLKPGTEYSVLIHGVKGGLLSSPLYAFFTT
59.6 ratio	104 ratio	4.34e+06 RLU	7.57e+06 RLU	SEQ ID NO 252 (designed binder, not shown: small tags and cut ends) MLPAPKNLVVSRVTEDSARLSWTAPDAAFDSFYIAYAEPRPDGEAIVLHVPGSERSYDLTGLKPGTEYSVLIHGVKGGLLSSPLDAFFTT
15 ratio	114 ratio	724000 RLU	5.54e+06 RLU	SEQ ID NO 250 (designed binder, not shown: small tags and cut ends) MLPAPKNLVVSRVTEDSARLSWTAPDAAFDSFYIAYAEPRPDGEAILLRVPGSERSYDLTGLKPGTEYSVLIHGVKGGLLSSPLYAKFTT
92 ratio	191 ratio	3.47e+06 RLU	7.21e+06 RLU	SEQ ID NO 253 (designed binder, not shown: small tags and cut ends) MLPAPKNLVVSRVTEDSARLSWTAPDAAFDSFYIAYAEPRPDGEAIILHVPGSERSYDLTGLKPGTEYSVLIHGVKGGLLSSPLDAYFTT
31.9 ratio	241 ratio	648000 RLU	4.9e+06 RLU	SEQ ID NO 242 (designed binder, not shown: small tags and cut ends) MLPAPKNLVVSRVTEDSARLSWTAPDAAFDSFYIAYAEPRPDGEAIQLLVPGSERSYDLTGLKPGTEYSVLIHGVKGGLLSSPLYAAFTT
204 ratio	277 ratio	5.4e+06 RLU	7.34e+06 RLU	SEQ ID NO 258 (designed binder, not shown: small tags and cut ends) MLPAPKNLVVSRVTEDSARLSWTAPDAAFDSFYIAYAEPRPDGEAILLEVPGSERSYDLTGLKPGTEYSVLIHGVKGGLLSSPLVAFFTT
